Measurements reported in article PMC12377726 (Proceedings of the National Academy of Sciences of the …, 2025).

B1: G001_gp1_V08_VRC01c_114 (antibody, V domains shown)
VH: QVQLVQSGAEVKKPGASGKVSCKASGYTFTDYYMYWVRQAPGQGLEWIGWINPTSGGSNYAQKFQGRVTMTRDTSISTAYMELSRLRSDDTAVYYCARRSEDRKAFDIWGQGTMVTVSS
VL: DIQMTQSPSTLSASVGDRVTITCRASQSISSWLAWYQQKPGKAPKLLIYKASSLESGVPSKFSGSGSGTEFTLTISSLQPDDFATYYCQQYDTFGQGTKLEIK
B2: G001_gp1_V08_VRC01c_120 (antibody, V domains shown)
VH: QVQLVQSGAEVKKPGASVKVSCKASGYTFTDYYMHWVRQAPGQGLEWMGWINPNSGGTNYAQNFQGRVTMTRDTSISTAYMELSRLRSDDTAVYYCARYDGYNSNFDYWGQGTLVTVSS
VL: DIQMTQSPSTLSASVGDRVTITCRASQSISNWLAWFQQKPGKAPKLLIYKASNLESGVPSRFSGSGSGTEFTLTISSLQPDDFATYYCQKYNTFGQGTKLEIK
B3: G001_gp1_V08_VRC01c_121 (antibody, V domains shown)
VH: QVQLVQSGAEVRKPGASVKVSCKASGYTFTDYYMHWVRQAPGQGLECMGWINPDSGGTNYAQKFQGRVTMTRDTSISTVYMELSRLRSDDTAVYYCARPALYDSSGYNWAYWGQGSLVTVSS
VL: DIQMTQSPSTLSASVGDRVTITCRASQSINRWLAWYQQKPGKAPKLLIYKTSSLENGVPSRFNGSGSGTEFTLTISSLQPDDFATYYCQHYETFGQGTKVEIK
B4: G001_gp1_V08_VRC01c_116 (antibody, V domains shown)
VH: QVQLVQSGAEVKKPGASGKVSCKASGYTFTDYYMYWVRQAPGQGLEWMGWINPNSGGSNYAQKFQGRVTMTRDTSISTAYMELSRLRSDDTAVYYCARRSEDRKAFDIWGQGTMVTVSS
VL: DIQMTQSPSTLSASVGDRVTITCRASQSISSWLAWYQQKPGKAPKLLIYKASSLESGVPSKFSGSGSGTEFTLTISSLQPDDFATYYCQQYDTFGQGTKLQIK
B5: G001_gp1_V08_VRC01c_122 (antibody, V domains shown)
VH: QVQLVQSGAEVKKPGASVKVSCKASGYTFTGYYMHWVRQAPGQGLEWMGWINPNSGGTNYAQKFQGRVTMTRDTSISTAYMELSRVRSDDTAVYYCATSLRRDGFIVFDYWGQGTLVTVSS
VL: DIQMTQSPSTLSASVGDRVTITCRASQSISSWLAWYQQKPGKAPKLLIYKASSLESGVPSRFSGSGSGTEFTLTISSLQPDDFATYYCQQYETFGQGTKVEIK
B6: G001_LD_V07A_VRC01c_46 (antibody, V domains shown)
VH: QVQLVQSGAEVKKPGASVKVSCKASGYTFTDYYMHWVRQAPGQGLEWMGWINPNSGGTNYAQKFQGWVTMTRDTSISTAYMELTRLRSDDTAVYYCAVRKNGGDCSFCFGYWGQGTLVTVSS
VL: QSVLTQPPSVSGAPGQRVTISCTGSSSNIGAGYDVHWYQQLPGTAPKLLIYGNNNRPSGVPDRFSGSKSGTSASLAITGLQAEDEADYYCQSYEMFGGGTKLTVL
B7: G001_LD_V07A_VRC01c_65 (antibody, V domains shown)
VH: QVQLVQSGAEVKKPGASVKVSCKASGYTFTGYYMHWVRQAPGQGLEWMGWINPNSGGTNYAQKFQGYVTMTRDTSISTAFMELSRLRSDDAAVYYCATSIAAPDSYWYFDLWGRGTLVTVSS
VL: EIVLTQSPGTLSLSPGERATLSCRASQSVTSSYLAWYQQKPGQAPRLLIYGASSRATGIPDRFSGSGSGTDFTLTISRLEPEDFAVYYCQQYEFFGQGTKLEIK
B8: G001_gp1_V08_VRC01c_115 (antibody, V domains shown)
VH: QVQLVQSGAEVKKPGASVKVFCKTSGYIFTDYYMHWVRQAPGQGLEWMGWINPNSGGTNYAQKFQGRVTMTRDTSISTAYMELSRLRSDDTAVYYCARAYYGDYGDYWGQGTLVTVSS
VL: DIVMTQSPDSLAVSLGERATINCKSSQSVLYSSDNKNYLSWYQQKPRQPPKLLIYWASTRESGVPDRFTGSGSGTDFTLTISSLQAEDVAVYYCQQYWTFGQGTKVEIK
B9: G001_gp1_V08_VRC01c_117 (antibody, V domains shown)
VH: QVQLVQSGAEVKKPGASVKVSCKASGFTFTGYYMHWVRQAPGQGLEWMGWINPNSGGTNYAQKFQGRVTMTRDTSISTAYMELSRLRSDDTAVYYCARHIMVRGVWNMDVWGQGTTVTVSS
VL: DIQMTQSPSSLSASVGDRVTITCQASQDISNYLNWYQQKPGKAPKLLIYDASNLEKGVPSRFSGGGSGTDFTFTISSLQPEDIATYYCQQYEFFGPGTKVDIK
B10: G001_gp1_V08_VRC01c_119 (antibody, V domains shown)
VH: QVQLVQSGADVKKPGASVKVSCKASGYTFSGYYMHWVRQAPGQGLEWMGWINPNSGGTNYAQNFQGRVTMTRDTSISTAYMELSSLTSDDTAVYYCASPRYSNGNRCYRYWGQGTLVTVSS
VL: DIQMTQSPSSLSASVGDRVTITCQASQDISNYLNWYQHHPGRAPKLLIYDASNLETGVPSRFSGSGSGTDFTFTISSLQPEDVATYYCQQYDYFGPGTKVDIK

The binders below were run against eOD-GT8 (engineered outer domain germline-targeting version 8), monomer (HIV-1 gp120 engineered outer domain, …).

| Binder | binding result |
| --- | --- |
| B1 | binds |
| B2 | binds |
| B3 | binds |
| B4 | binds |
| B5 | binds |
| B6 | binds |
| B7 | binds |
| B8 | binds |
| B9 | binds |
| B10 | binds |
